Test [1] concerns the target T1, Tax interacting protein-1 (TIP1), recombinant / purified protein (UniProt O14907 1-124).
T1 chain: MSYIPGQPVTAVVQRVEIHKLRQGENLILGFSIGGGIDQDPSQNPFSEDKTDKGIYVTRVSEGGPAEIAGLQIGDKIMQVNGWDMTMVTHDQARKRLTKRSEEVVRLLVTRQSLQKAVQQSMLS
Description: ELISA.

Test [2] concerns the target T1, Tax interacting protein-1 (TIP1), …. Description: Biacore.
For test [3] the target is unchanged. Description: ELISA.
For test [4] the target is unchanged. Description: Biacore.
The next test has as its target v127. In words: Biacore.
Another test concerns the target v144. In words: Biacore.

B1: human IgG1 v111 (antibody, V domains shown)
VH: QMQLVQSGAEVKKPGESLKISCKGSGYSFTSNWIGWVRQMPGKGLEWMGIIYPGDSDTRYSPSFQGQVTISADKSISTAYLQWSSLKASDTAMYYCARQQGHDAFDIWGQGTTVTVSS
VL: SYELTQPPSVSVSPGQTARITCSGDALPKRYAYWYRQKPGQAPVLVIQKDTERPSGIPERFSGSISGTTVTLTISGVQAEDEADYYCQSTDSSASYAVFGGGTKLTVL
In the case of B1, the values for the Kd in test [1], in test [2] and in test [4] were 0.124 nM, 0.107 nM and 0.107 nM, respectively. In addition, the EC50 in test [3] is 0.164 nM.

B2: TIP1 (other)
chain: T1 chain
Regarding B2, the values for the Kd with v127 and with v144 were 0.13 nM and 0.241 nM, respectively.

These data come from patent publication US20240317885A1 (published 2024).
